Experimental data as given in patent US20180002435A1 (CELLECTIS, published 2018).

T1: recombinant BCMA protein fused to an FC fragment (SEQ ID NO 151)
T1 construct: also called BCMA-Fc fusion protein
T1 chain: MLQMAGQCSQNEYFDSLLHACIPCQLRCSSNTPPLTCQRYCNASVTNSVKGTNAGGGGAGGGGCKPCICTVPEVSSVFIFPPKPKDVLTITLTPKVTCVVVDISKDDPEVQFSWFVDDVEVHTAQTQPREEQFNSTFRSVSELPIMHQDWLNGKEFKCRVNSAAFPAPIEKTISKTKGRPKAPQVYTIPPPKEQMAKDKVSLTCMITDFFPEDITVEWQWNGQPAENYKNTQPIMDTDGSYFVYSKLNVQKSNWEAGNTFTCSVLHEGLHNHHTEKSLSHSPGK


Target: T1, recombinant BCMA protein fused to an FC …
Assay: flow cytometry of CAR T cells, BCMA-Fc and PE labeled anti-FC antibody
Experimental: The CDC assay consisted in incubating 0.2 10⁶ transfected cells either alone, or in the presence of Rituximab (RTX, ROCHE, 400 ng) and Babby Rabbit Complement (BRC, AbD Serotec, ref#C12CA, 100 μL of the solution diluted according to the manufacturer protocol) for 2 hours at 37° C. in a final volume of 400 μL of Xvivo 10% FBS. At the end of incubation, anti BCMA-CAR T cells were recovered and labeled with recombinant BCMA protein fused to an FC fragment (SEQ ID NO 151) and a PE labeled anti-FC secondary monoclonal antibody (Jackson ImmunoResearch, ref#115-115-164, diluted 1/200). Cells were then recovered in PFA 4% before being analyzed by flow cytometry. The flow cytometry gating strategy was to determine the viability of anti-BCMA CAR positive T cells (PE positive cells) among the singlet found in the total population of cells. This analysis was performed on cells incubated alone and in the presence of RTX and BRC. Results are expressed as the ratio named “Relative frequency of viable cells among BCMA CAR positive T cells (with respect to control experiment)” described below: […]

binding result | Binder
binds | anti-BCMA CAR of SEQ ID NO 131 (other, Single-chain CAR on primary T cells) EVQLLESGGGLVQPGGSLRLSCAASGFTFSSYAMNWVRQAPGKGLEWVSAILSSGGSTYYADSVKGRFTISRDNSKNTLYLQMNSLRAEDTAVYYCARYWPMDIWGQGTLVTVSSGGGGGSCPYSNPSLCSGGGGGSEIVLTQSPGTLSLSPGERATLSCRGGQSVSSSYLAWYQQKPGQAPRLLMYDASIRATGIPDRFSGSGSGTDFTLTISRLEPEDFAVYYCQQYQSWPLTFGQGTKVEIKSDPTTTPAPRPPTPAPTIASQPLSLRPEACRPAAGGAVHTRGLDFACDIYIWAPLAGTCGVLLLSLVITLYCRRGRKKLLYIFKQPFMRPVQTTQEEDGCSCRFPEEEEGGCELRVKFSRSADAPAYQQGQNQLYNELNLGRREEYDVLDKRRGRDPEMGGKPRRKNPQEGLYNELQKDKMAEAYSEIGMKGERRRGKGHDGLYQGLSTATKDTYDALHMQALPPRE
binds | anti-BCMA CAR of SEQ ID NO 138 (other, Single-chain CAR on primary T cells) GGGGSCPYSNPSLCSGGGGSGGGGSEVQLLESGGGLVQPGGSLRLSCAASGFTFSSYAMNWVRQAPGKGLEWVSAILSSGGSTYYADSVKGRFTISRDNSKNTLYLQMNSLRAEDTAVYYCARYWPMDIWGQGTLVTVSSGGGGGSCPYSNPSLCSGGGGGSEIVLTQSPGTLSLSPGERATLSCRGGQSVSSSYLAWYQQKPGQAPRLLMYDASIRATGIPDRFSGSGSGTDFTLTISRLEPEDFAVYYCQQYQSWPLTFGQGTKVEIKSDPGSGGGGSCPYSNPSLCSGGGGSAPTTTPAPRPPTPAPTIASQPLSLRPEACRPAAGGAVHTRGLDFACDIYIWAPLAGTCGVLLLSLVITLYCRRGRKKLLYIFKQPFMRPVQTTQEEDGCSCRFPEEEEGGCELRVKFSRSADAPAYQQGQNQLYNELNLGRREEYDVLDKRRGRDPEMGGKPRRKNPQEGLYNELQKDKMAEAYSEIGMKGERRRGKGHDGLYQGLSTATKDTYDALHMQALPPRE
binds | anti-BCMA CAR of SEQ ID NO 132 (other, Single-chain CAR on primary T cells) GGGGSCPYSNPSLCSGGGGSGGGGSEVQLLESGGGLVQPGGSLRLSCAASGFTFSSYAMNWVRQAPGKGLEWVSAILSSGGSTYYADSVKGRFTISRDNSKNTLYLQMNSLRAEDTAVYYCARYWPMDIWGQGTLVTVSSGGSCPYSNPSLCSGGSEIVLTQSPGTLSLSPGERATLSCRGGQSVSSSYLAWYQQKPGQAPRLLMYDASIRATGIPDRFSGSGSGTDFTLTISRLEPEDFAVYYCQQYQSWPLTFGQGTKVEIKSDPTTTPAPRPPTPAPTIASQPLSLRPEACRPAAGGAVHTRGLDFACDIYIWAPLAGTCGVLLLSLVITLYCRRGRKKLLYIFKQPFMRPVQTTQEEDGCSCRFPEEEEGGCELRVKFSRSADAPAYQQGQNQLYNELNLGRREEYDVLDKRRGRDPEMGGKPRRKNPQEGLYNELQKDKMAEAYSEIGMKGERRRGKGHDGLYQGLSTATKDTYDALHMQALPPRE
binds | anti-BCMA CAR of SEQ ID NO 136 (other, Single-chain CAR on primary T cells) GGGGSCPYSNPSLCSGGGGSGGGGSEVQLLESGGGLVQPGGSLRLSCAASGFTFSSYAMNWVRQAPGKGLEWVSAILSSGGSTYYADSVKGRFTISRDNSKNTLYLQMNSLRAEDTAVYYCARYWPMDIWGQGTLVTVSSGGGGSGGGGSGGGGSEIVLTQSPGTLSLSPGERATLSCRGGQSVSSSYLAWYQQKPGQAPRLLMYDASIRATGIPDRFSGSGSGTDFTLTISRLEPEDFAVYYCQQYQSWPLTFGQGTKVEIKSDPGSGGGGSCPYSNPSLCSGGGGSAPTTTPAPRPPTPAPTIASQPLSLRPEACRPAAGGAVHTRGLDFACDIYIWAPLAGTCGVLLLSLVITLYCRRGRKKLLYIFKQPFMRPVQTTQEEDGCSCRFPEEEEGGCELRVKFSRSADAPAYQQGQNQLYNELNLGRREEYDVLDKRRGRDPEMGGKPRRKNPQEGLYNELQKDKMAEAYSEIGMKGERRRGKGHDGLYQGLSTATKDTYDALHMQALPPRE
binds | anti-BCMA CAR of SEQ ID NO 135 (other, Single-chain CAR on primary T cells) EVQLLESGGGLVQPGGSLRLSCAASGFTFSSYAMNWVRQAPGKGLEWVSAILSSGGSTYYADSVKGRFTISRDNSKNTLYLQMNSLRAEDTAVYYCARYWPMDIWGQGTLVTVSSGGGGGSCPYSNPSLCSGGGGGSEIVLTQSPGTLSLSPGERATLSCRGGQSVSSSYLAWYQQKPGQAPRLLMYDASIRATGIPDRFSGSGSGTDFTLTISRLEPEDFAVYYCQQYQSWPLTFGQGTKVEIKSDPGSGGGGSCPYSNPSLCSGGGGSAPTTTPAPRPPTPAPTIASQPLSLRPEACRPAAGGAVHTRGLDFACDIYIWAPLAGTCGVLLLSLVITLYCRRGRKKLLYIFKQPFMRPVQTTQEEDGCSCRFPEEEEGGCELRVKFSRSADAPAYQQGQNQLYNELNLGRREEYDVLDKRRGRDPEMGGKPRRKNPQEGLYNELQKDKMAEAYSEIGMKGERRRGKGHDGLYQGLSTATKDTYDALHMQALPPRE
binds | anti-BCMA CAR of SEQ ID NO 133 (other, Single-chain CAR on primary T cells) GGGGSCPYSNPSLCSGGGGSGGGGSEVQLLESGGGLVQPGGSLRLSCAASGFTFSSYAMNWVRQAPGKGLEWVSAILSSGGSTYYADSVKGRFTISRDNSKNTLYLQMNSLRAEDTAVYYCARYWPMDIWGQGTLVTVSSGGGGGSCPYSNPSLCSGGGGGSEIVLTQSPGTLSLSPGERATLSCRGGQSVSSSYLAWYQQKPGQAPRLLMYDASIRATGIPDRFSGSGSGTDFTLTISRLEPEDFAVYYCQQYQSWPLTFGQGTKVEIKSDPTTTPAPRPPTPAPTIASQPLSLRPEACRPAAGGAVHTRGLDFACDIYIWAPLAGTCGVLLLSLVITLYCRRGRKKLLYIFKQPFMRPVQTTQEEDGCSCRFPEEEEGGCELRVKFSRSADAPAYQQGQNQLYNELNLGRREEYDVLDKRRGRDPEMGGKPRRKNPQEGLYNELQKDKMAEAYSEIGMKGERRRGKGHDGLYQGLSTATKDTYDALHMQALPPRE
binds | anti-BCMA CAR of SEQ ID NO 137 (other, Single-chain CAR on primary T cells) GGGGSCPYSNPSLCSGGGGSGGGGSEVQLLESGGGLVQPGGSLRLSCAASGFTFSSYAMNWVRQAPGKGLEWVSAILSSGGSTYYADSVKGRFTISRDNSKNTLYLQMNSLRAEDTAVYYCARYWPMDIWGQGTLVTVSSGGSCPYSNPSLCSGGSEIVLTQSPGTLSLSPGERATLSCRGGQSVSSSYLAWYQQKPGQAPRLLMYDASIRATGIPDRFSGSGSGTDFTLTISRLEPEDFAVYYCQQYQSWPLTFGQGTKVEIKSDPGSGGGGSCPYSNPSLCSGGGGSAPTTTPAPRPPTPAPTIASQPLSLRPEACRPAAGGAVHTRGLDFACDIYIWAPLAGTCGVLLLSLVITLYCRRGRKKLLYIFKQPFMRPVQTTQEEDGCSCRFPEEEEGGCELRVKFSRSADAPAYQQGQNQLYNELNLGRREEYDVLDKRRGRDPEMGGKPRRKNPQEGLYNELQKDKMAEAYSEIGMKGERRRGKGHDGLYQGLSTATKDTYDALHMQALPPRE
binds | anti-BCMA CAR of SEQ ID NO 130 (other, Single-chain CAR on primary T cells) EVQLLESGGGLVQPGGSLRLSCAASGFTFSSYAMNWVRQAPGKGLEWVSAILSSGGSTYYADSVKGRFTISRDNSKNTLYLQMNSLRAEDTAVYYCARYWPMDIWGQGTLVTVSSGGSCPYSNPSLCSGGSEIVLTQSPGTLSLSPGERATLSCRGGQSVSSSYLAWYQQKPGQAPRLLMYDASIRATGIPDRFSGSGSGTDFTLTISRLEPEDFAVYYCQQYQSWPLTFGQGTKVEIKSDPTTTPAPRPPTPAPTIASQPLSLRPEACRPAAGGAVHTRGLDFACDIYIWAPLAGTCGVLLLSLVITLYCRRGRKKLLYIFKQPFMRPVQTTQEEDGCSCRFPEEEEGGCELRVKFSRSADAPAYQQGQNQLYNELNLGRREEYDVLDKRRGRDPEMGGKPRRKNPQEGLYNELQKDKMAEAYSEIGMKGERRRGKGHDGLYQGLSTATKDTYDALHMQALPPRE
binds | anti-BCMA CAR of SEQ ID NO 134 (other, Single-chain CAR on primary T cells) EVQLLESGGGLVQPGGSLRLSCAASGFTFSSYAMNWVRQAPGKGLEWVSAILSSGGSTYYADSVKGRFTISRDNSKNTLYLQMNSLRAEDTAVYYCARYWPMDIWGQGTLVTVSSGGSCPYSNPSLCSGGSEIVLTQSPGTLSLSPGERATLSCRGGQSVSSSYLAWYQQKPGQAPRLLMYDASIRATGIPDRFSGSGSGTDFTLTISRLEPEDFAVYYCQQYQSWPLTFGQGTKVEIKSDPGSGGGGSCPYSNPSLCSGGGGSAPTTTPAPRPPTPAPTIASQPLSLRPEACRPAAGGAVHTRGLDFACDIYIWAPLAGTCGVLLLSLVITLYCRRGRKKLLYIFKQPFMRPVQTTQEEDGCSCRFPEEEEGGCELRVKFSRSADAPAYQQGQNQLYNELNLGRREEYDVLDKRRGRDPEMGGKPRRKNPQEGLYNELQKDKMAEAYSEIGMKGERRRGKGHDGLYQGLSTATKDTYDALHMQALPPRE
